In the nanobody polyreactivity screen of Harvey et al. (2022):

Test: yeast display, Sf9 membrane polyspecificity reagent, FACS + sequencing; frameworks hold sequencing errors
Summary of the method: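 Galactose-induced (36–48 hours) yeast carrying a synthetic nanobody display library were exposed to 10% biotinylated, detergent-solubilized Sf9 membrane reagent at 4 °C for 1 hour. FACS followed streptavidin microbead enrichment, using low and high (top ~1%) gates for expression (anti-HA) and reagent binding (streptavidin). Colony PCR, MiSeq 2 × 250 sequencing and CDR-length filtering followed. Labels for polyreactivity reflect the gate of origin.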

Sequence	polyreactivity (PSR sort gate)
QVQLVESAGGLVQAGGSLRLSCAASGRIFARYAMGWYRQAPGKVRELVAAISASGGSTYYADSVKGRFTISRDNAKYTVYLQMNSLKPEDTAVYYCAARFSYPYRIAFNYWGQGTQVTVSS	low polyreactivity
QVQLVESAGGLVQAGGSLRLSCAASGRIFGYYAMGWYRQAPGKERELVARISRGGSTYYADSVKGRFTISRDNAMNTVYLQMTSLKPEDTGVYYCAATRSGYTSYTDDSWGQGTQVTVSS	high polyreactivity
QVQLVESAGGLVQAGGSLRLSCAASGRIFHKNAMGWYRQAPGKERELVATINYGGSSTYYADSVKGRFTISRDNAKNTVYLQMNSLKPEDTAVYYCAAAPEYLTDHAYWGQGTQVTVSS	low polyreactivity
QVQLVESAGGLVQAGGSLRLSCAASGRIFSHYAMGWYRQAPGKERELVAAITSSGGSTSYADSVKGRFTISRDNAKNTVYLQMNSLKPEDTAVYYCAAEDTQVRRSPVRPLEDYWGQGTQVTVSS	low polyreactivity
QVQLVESAGGLVQAGGSLRLSCAASGRIFYGNAMGWYRQAPGKERELVAAISKRGGSTHYAASVKGRFTISRDNAKNTVYLQMNSLKPEDTAVYYCATDSYYVGAVHYYYWGQGTQVTVSS	high polyreactivity
QVQLVESAGGLVQAGGSLRLSCAASGRIFYLYAMGWYRQAPGQERELVARITSGSGTYYADSVKGRFTISRDNAKNTVYLQMNSLKPEDTGVYYCAAREPGVCFVGHYTGLDYWGQGTQVTVSS	low polyreactivity
QVQLVESAGGLVQAGGSLRLSCAASGRIFYYAMGWYRQAPGKEREFVAAISGSGGSTNYADSVKGRFTISRDNAKNTVYLQMNSLKPEDTAVYYCNAESWSWGFIYEYEYWGQGTQVTVSS	high polyreactivity
QVQLVESAGGLVQAGGSLRLSCAASGRTFQYYALGWYRQAPGKERELVAAISWSGGSTYYADSVTGRFTISRDNAKNTVYLLMNSLKPEDSAVYYCAKTSSGRKFYWGQGTQVTVSS	high polyreactivity
QVQLVESAGGLVQAGGSLRLSCAASGRTFYPYAMGWYRQAPGKARELVAAIRSSGGTTYYADSVKGRFTISRDNAKNTVYVQMNSLKPEDTAVYYCAAFVDRQGGYYWGQGTQVTVSS	high polyreactivity
QVQLVESAGGLVQAGGSLRLSCAASGSIFPLYAMGWYRQAPGKERELVAAISYSGGRTYYADSVKGRFTISRDNAKNTVYLQMNSLKPEDTAVYYCNTRQRVIDDYWGQGTQVTVSS	high polyreactivity
QVQLVESAGGLVQAGGSLRLSCAASGSIFRAYSMGWYRQAPGKERELVAAISWGGGSTSYADSVKGRFTISRDNAKNTVYLQMNSLQPEDTAVYYCNKVSFSKRRDYYWGQGTQVTVSS	high polyreactivity
QVQLVESAGGLVQAGGSLRLSCAASGSIFYEYAMGWYRQAPGKERELVATITWTDDSTYYADSVKGRFTISRDNAKNTVYLQMNSLKPEDTAVYYCNADLWPGNHDGYWGQGTQVTVSS	low polyreactivity
QVQLVESAGGLVQAGGSLRLSCAASGSIFYRYVMGWYRQAPGKERELVAAITSDGSTNYADSVKGRFTISRDNAKNTVYLQMNSLKPEDSAVYYCNARSYRGRFDYWGLGTQVTVSS	low polyreactivity
QVQLVESAGGLVQAGGSLRLSCAASGSIFYTYAMGWYRQAPGKERELVAAISGSGTSTYYADSVKGRFTISRDNAKNTVYLQMNSLKPEDTAVYYCATDGGAAWGRYYWDYGYWGQGTQVTVSS	low polyreactivity
QVQLVESAGGLVQAGGSLRLSCAASGSNFAIYDMGWYRQAPGKEREFVADISIVGRKKYADSVKGRFTISRDNAKNTVYLQMNSLKPEDTAVYYCTDQDSRDRKFYWGYTRGHWGQGTQVTVSS	low polyreactivity
QVQLVESAGGLVQAGGSLRLSCAASGSTFQDYVMGWYRQAPGKERELVAAISRSGGSTYYADSVKGRFTISRDNAKNTVYLQMNSLKPEDTAVYYCAAQQYTYFVPFLTYGEYDYWGQGTQVTVSS	low polyreactivity
QVQLVESAGGLVQAGGSLRLSCAASGSTFQYYAMGWYRLAPGKDRELVATITLIAGSTYADSVKGRFTISRDNAKNTVYLQMNSLNPEDTEVYYCAADDGGYETPELLYGGRGDDWGQGTQVTVSS	low polyreactivity
QVQLVESAGGLVQAGGSLRLSCAASGSTFYPYAIGWYRQAPGKERELVAAISSGGSTYYADSVKGRFTISRDNAKNTVYLQMNSLKPEDTAVYYCAADFYYAYYWGQGTQVTVSS	low polyreactivity
QVQLVESAGGLVQAGGSLRLSCAASGYIFGVYAMGWYRQAPGKERELVAAISYGVGSTYYADSVKGRFTISRDNAKNTVYLQMNSLKPEDTAVYYCASDVFFYVYEAYLLYYWGQGTQVTVSS	low polyreactivity
QVQLVESAGGLVQAGGSLRLSCAASGYIFWENAMGWYRQAPGKERELVAAITVSGGGTYYADSVKGRFTISRDNAKNTVYLQMNSLKPEDTAVYYCAADEDNPWLWFYYWGHGTQVTVSS	low polyreactivity
QVQLVESAGGLVQAGGSLRLSCAATGRTFYVNAMGWYRQAPGKERELVAAISSGDSSTYYADSVKGRFTSSRDNAKNTVYLQMNSLKPEDTAVYYCAAEVWVYFEYEYWGQGTQVTVSS	high polyreactivity
QVQLVESAGGLVQAGGSLRLSCAPSGRIFYYNAMGWYRQAPGKERELVAAITSGGSTNYADSVKGRFTISRDNAKNTVYLQMNSLKPEDTAVYYCAADYYFYVAGVHYDYWGQGTQVTVSS	low polyreactivity

Sequence	polyreactivity (PSR sort gate)
QVQLVESAGGLVQAGGSLRLSCAPSGSTFNYYAMGWYRQAPGKESELGAAIDWSGGSTYYADSVKGRFTISRDNAKNTVYLQMNSLKPDDTAVYYCAARTYDYSYGSFDYWGQGTQVTVSS	low polyreactivity
QVQLVESAGGLVQAGGSLRLSCDASGRTFPYNAMGWYRQAHGKERELVAGITGGGSTYYADSVKGRFTISRDNAKNNVYLQMNSLKPEDTAVYYCAADRYFLYATYPDVEFNYWGQGTQVTVSS	high polyreactivity
QVQLVESAGGLVQAGGSLRLSCDASGSIFTTNAMGWYRQAPGKERELVAAITSTAGSTYYADSVKGRFKISRDNAKNTVYLQMNSLKPEDTAVYYCAATYNVGVKAWYDYWGQGSQVTVSS	high polyreactivity
QVQLVESAGGLVQAGGSLRLSCDASVSTFGYYAMGWYRQAPGKERELVAVIRRGGSTNYADSVKGRFTISRDNAKNTVYLQMNSLKPEDTAVYYCAKSQRGTVYSYYYWGQGNQVTVSS	high polyreactivity
QVQLVESAGGLVQAGGSLRLSCGASGRIFYYNTMGWYRQAPGKERELVAAITTNGGSTYYADSVKGRFTISRDNAKNTVYLQMYSLKPEDTAVYYCNRDRYPYYYAYNYWGQGTQVTVSS	low polyreactivity
QVQLVESAGGLVQAGGSLRLSCPASGSTFTFNAMGWYRQAPGKERELVADITSGGRTNYADSVKGRFTISRDNAKNTVYLQMNSLKPEDTAVYYCAARWWAHEYPGYDSWGQGTQVTVSS	low polyreactivity
QVQLVESAGGLVQAGGSLRLSFAASGRISGRYAMRWYRQAPGKEREVVAAITSRGGRTYYADSVKGRFTISRDNAKNTVYLQMNSLKPEDTAVYYCAKDAGSRTVREFGYWGQGTHVTVSS	high polyreactivity
QVQLVESAGGLVQAGGSLRLSSAASGIIFSEYAMGWYRPAPGKERELVAAISKSGGRTYYADSVKGRFTISGVNAKNTVDLQMNSLKPEDTAVYYCAARHAPILGDHGMKYWGQGTQVTVSS	high polyreactivity
QVQLVESAGGLVQAGGSLRLSSAASGRTFIVYAMGWYRQARGKERELVAGITRGSTNYADSVKGRFTISRDNAKNTVYVQMNCLKPEDTAVYYCAARWQWLNGYYYWGQGTQVTVSS	high polyreactivity
QVQLVESAGGLVQAGGSLSIICAASGFTFYGYTMGWYRQAPGKERELVAAITSDGDTNYADSVKGRFTISRDNAKNTVYLQMISLKPVDTAVYYCNADPGYYFYWWPGDYWGQGTQLTVSS	low polyreactivity
QVQLVESAGGLVQAGGSLSLICAASGFIFDSYAMGWSRQAPGKERELVAAIDKRGGRTYYADSEKGRFTISRDNAKNTVYLQMNSLKPEDTAVYFCAADDYTGYGYWGQGTQVTVSS	high polyreactivity
QVQLVESAGGLVQAGGSLSLSCAASGSIFWSYAMGWYRQAPGKERELVAVINWSGGSTYYADSVKGRFTISRDNAKNTVYLQMNSLKPEDTAVYYCNKDLGPTKRPFTFDYWGQGTQVTVSS	low polyreactivity
QVQLVESAGGLVQAGGSLSLSCAATGFIFYYNTMGWYRQAPGKERELVAAINSGGSTYYADSVKGRFTISRDNAKNTVYLQMNSLKPEDTAVYYCAKRYAVSSRYYYWGQGTQVTVSS	high polyreactivity
QVQLVESAGGLVQARGSLRLSCAASGRIFDVNAMGWYRQAPGKERELVAAISSGGNTKYADSVKGRFTISRDNAKNTVYLQMNSLKPEDTAVYYCNADGKAGGDSDYWGQGTQVTVSS	low polyreactivity
QVQLVESAGGLVQARGSLRLSCAASGRIFVPYAMGWYRQAPGKERELVAVISRGGSTYYADSVKGRFTISRDNAKNTVYLQMNSLKPEDTAVYYCAVASKLALQPWYDYWGQGTQVTVSS	high polyreactivity
QVQLVESAGGLVQEGGSLSLSCAASGITLTIYVMGWYRQAPGKEREMVAAISTSGGSTYYADSVKGRFTISRDNAKNTVYLQMNSLKQEDTAVYYCNATPLRRYYGRYLMDYWGQGTQVTVSS	high polyreactivity
QVQLVESAGGLVQSGGSLRLSCPASGRIFYLNAQGWYRQAPGKERELVAAITWSGGRTYYADSVKGRFTISRDYAKNSVYLQMNSLKPEDTAVYYCAAVPRPGPNTVLTPYGYWGQGTQVTVSS	high polyreactivity
QVQLVESAVGLVQAGGSLRLSSAASGFTFPLYAMGWYRQEHGKEREFVPVISRSGGSTYYADSVKGRFTISRDNAKNTVYLQMNSLKPEDTAVYYCAARLVPRSPERGNYDYWGQGTQVTVSS	high polyreactivity
QVQLVESCAGLVQAGGSLRLTCADSGSIFDFNAMGWYRQVPGKEREWVAAITSGGSTNYADSVKGRFTNSRDNAKNTVYLQMNSLKPEDTAVYYCAARPARGASQGGYVRPWWYDSWGQGTQVTVSS	low polyreactivity
QVQLVESCGALVQAGGSLLLSCAASGRTFVVNDMGWYRHAPWKERELVATINVSGGSTSYEDSVKGRFTISRDNGKYTVYLQMTSLKPEDTAVYYCNVDTYVEYPHDYWGQGTQVTVSS	low polyreactivity
QVQLVESCGCLVQAGGSLRLSCAASGSTFRKYAMGWYRQAPGKEREFVAAITWSTGTTYYADSVKGRFTISRDNAKNTVYLQMNSLKPEDTAVYYCAADSQPPHELYESIEHESWGQGTQVTVSS	low polyreactivity
